Measured values reported in patent publication US20200206304A1, “METHODS AND COMPOSITIONS FOR EFFICIENT DELIVERY THROUGH MULTIPLE BIO BARRIERS” (Cedars-Sinai Medical Center, priority 2017, published 2020).
Square brackets hold non-standard residues; d marks the D form. Ends that are not written are not given here.

What was measured:
[1] = target: amyloid β (Aβ) plaques (UniProt P05067); assay: in vivo labelling of Aβ plaques after i.v. injection into APPswe/PS1ΔE9 AD mice, injected dose 8X (0.55 µmol/Kg)
Sequence of amyloid β (Aβ) plaques (P05067 672-713): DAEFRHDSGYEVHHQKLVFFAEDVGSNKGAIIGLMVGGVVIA

[2] = target: amyloid β (Aβ) plaques (UniProt P05067); assay: in vivo labelling of Aβ plaques after i.v. injection into APPswe/PS1ΔE9 AD mice, injected dose 2X (0.137 µmol/Kg)
[3] = target: amyloid β (Aβ) plaques (UniProt P05067); assay: in vivo labelling of Aβ plaques after i.v. injection into APPswe/PS1ΔE9 AD mice, injected dose 4X (0.274 µmol/Kg)
[4] = target: amyloid β (Aβ) plaques (UniProt P05067); assay: in vivo labelling of Aβ plaques after i.v. injection into APPswe/PS1ΔE9 AD mice, injected dose 6X (0.411 µmol/Kg)
[5] = target: amyloid β (Aβ) plaques (UniProt P05067); assay: in vivo labelling of Aβ plaques after i.v. injection of rhodamine-labelled conjugate into APPswe/PS1ΔE9 AD mice, dose 8X; fluorescence microscopy of brain sections

- Percentage of total plaques labeled by the reagents [1]: 21.1%
- Percentage of total plaques labeled by the reagents [2]: 0%
- Percentage of total plaques labeled by the reagents [3]: 0%
- Percentage of total plaques labeled by the reagents [4]: 0%
- Percentage of total plaques labeled by the reagents [5]: 21.1%
B1: PMLA/LLL/D3/rhodamine (peptide)
peptide 1: [dR][dP][dR][dT][dR][dL][dH][dT][dH][dR][dN][dR]C
peptide 2: Leu-Leu-Leu
modifications: not fully specified (some residues, N-terminus); also: PMLA scaffold carrying LLL (amide-linked to pendant carboxylates), D3 peptide and rhodamine, D3 Cys thioether to maleimide-PEG3400 on PMLA
